Paper PMC4493278 (Cell Research, 2015)
Values joined by “and” are separate entries in the source; they are usually repeats but may differ in a detail not shown here. Equal values may be shown once. Read-outs that look alike come from different tables or passages of the source.

Key:
Moesin FERM domain = Moesin FERM domain (UniProt P26038)
[1] = target: T1, Merlin FERM domain (Merlin-FERM, residues 1-320) (human, UniProt P35240 1-320); test: ITC
T1 sequence (looked up): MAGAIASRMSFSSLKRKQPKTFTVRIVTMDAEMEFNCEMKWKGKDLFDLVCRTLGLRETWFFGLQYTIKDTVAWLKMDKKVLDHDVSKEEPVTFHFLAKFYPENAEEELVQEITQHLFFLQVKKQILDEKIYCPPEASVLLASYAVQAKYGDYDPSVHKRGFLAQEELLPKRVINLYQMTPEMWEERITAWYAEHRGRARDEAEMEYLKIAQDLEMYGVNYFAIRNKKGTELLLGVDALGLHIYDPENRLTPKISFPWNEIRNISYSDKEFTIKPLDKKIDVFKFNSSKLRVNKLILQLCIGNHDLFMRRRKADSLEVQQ

[2] = target: T1, Merlin FERM domain (Merlin-FERM, …)
[3] = target: T1, Merlin FERM domain (Merlin-FERM, …); test: crystal structure
S518D-Merlin = target: T2, S518D-Merlin (human, UniProt P35240 20-595, S518D); test: ITC
T2 sequence (looked up): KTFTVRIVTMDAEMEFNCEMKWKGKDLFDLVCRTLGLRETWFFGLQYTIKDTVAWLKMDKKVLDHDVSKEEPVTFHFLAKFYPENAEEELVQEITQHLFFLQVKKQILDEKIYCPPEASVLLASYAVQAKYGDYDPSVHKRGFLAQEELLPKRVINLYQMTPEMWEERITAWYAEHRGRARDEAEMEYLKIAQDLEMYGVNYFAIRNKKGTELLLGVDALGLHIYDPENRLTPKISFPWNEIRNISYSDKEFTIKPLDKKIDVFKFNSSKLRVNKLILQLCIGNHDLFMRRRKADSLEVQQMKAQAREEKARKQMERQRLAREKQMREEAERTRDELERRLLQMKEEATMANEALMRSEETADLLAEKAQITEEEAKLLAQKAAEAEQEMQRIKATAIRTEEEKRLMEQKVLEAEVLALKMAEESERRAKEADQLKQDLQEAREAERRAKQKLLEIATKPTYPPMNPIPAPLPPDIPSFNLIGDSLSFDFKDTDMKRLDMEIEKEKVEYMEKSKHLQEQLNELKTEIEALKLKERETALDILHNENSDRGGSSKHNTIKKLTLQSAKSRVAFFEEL

[4] = target: entire C-terminal half of Merlin (human); test: SEC
S518A-Merlin = target: T3, S518A-Merlin (human, UniProt P35240 20-595, S518A); test: pull-down
T3 sequence (looked up): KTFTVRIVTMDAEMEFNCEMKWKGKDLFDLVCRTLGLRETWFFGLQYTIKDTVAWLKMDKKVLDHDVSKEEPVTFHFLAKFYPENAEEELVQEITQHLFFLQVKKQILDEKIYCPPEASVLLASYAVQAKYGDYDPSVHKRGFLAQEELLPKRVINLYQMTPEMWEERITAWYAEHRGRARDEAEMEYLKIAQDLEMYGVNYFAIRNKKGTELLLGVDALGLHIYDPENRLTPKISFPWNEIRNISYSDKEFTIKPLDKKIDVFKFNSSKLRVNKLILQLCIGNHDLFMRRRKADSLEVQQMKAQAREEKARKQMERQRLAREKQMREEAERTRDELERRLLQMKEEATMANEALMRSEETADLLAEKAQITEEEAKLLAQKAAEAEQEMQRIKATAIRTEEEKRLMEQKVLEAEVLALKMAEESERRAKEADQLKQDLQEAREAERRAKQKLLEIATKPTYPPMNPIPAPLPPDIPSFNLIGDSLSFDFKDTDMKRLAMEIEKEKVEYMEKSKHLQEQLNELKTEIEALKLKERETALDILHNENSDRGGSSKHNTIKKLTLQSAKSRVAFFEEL

Sequence of Moesin FERM domain (P26038 2-295): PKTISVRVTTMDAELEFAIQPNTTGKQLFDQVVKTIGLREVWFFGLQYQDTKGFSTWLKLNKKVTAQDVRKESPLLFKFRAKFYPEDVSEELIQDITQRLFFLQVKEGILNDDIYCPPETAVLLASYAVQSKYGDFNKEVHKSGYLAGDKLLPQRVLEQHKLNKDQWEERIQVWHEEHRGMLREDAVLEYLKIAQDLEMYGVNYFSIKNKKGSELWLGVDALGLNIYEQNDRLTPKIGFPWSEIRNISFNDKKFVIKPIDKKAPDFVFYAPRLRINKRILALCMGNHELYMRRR

**Q.** How did the Kd (Moesin FERM domain) turn out when Moesin tail domain (domain or fragment) was run?
**A.** The Kd was 16 nM.

B1: N-terminus of Lats1 (Lats1-NT, residues 1-153) (domain or fragment, mouse, UniProt Q8BYR2 1-153, looked up)
chain: MKRGEKPEGYRQMRPKTFPASNYPGSSRQMLQEIRESLRNLSKPSDASKAEHNLNKMSTEDPRQVRNPPKFGTHHKALQEIRNSLLPFANETSSSRSPSEVNPQMFQDLQAAGFDEDMVIQALQKTNNRSIEAAVEFISKMSYQDPRREQMSA
**Q.** For B1, which Kd [1] is on record?
**A.** The Kd was roughly 1400 nM.

B2: Merlin-CTD-S518D (domain or fragment, human, UniProt P35240 507-595, looked up)
chain: FDFKDTDMKRLDMEIEKEKVEYMEKSKHLQEQLNELKTEIEALKLKERETALDILHNENSDRGGSSKHNTIKKLTLQSAKSRVAFFEEL
**Q.** How did the Kd [2] turn out when B2 was run?
**A.** Its Kd is roughly 4000 nM.

B3: Merlin-CTD bearing S518D/A585W substitutions (domain or fragment, human, UniProt P35240 507-595, looked up)
chain: FDFKDTDMKRLDMEIEKEKVEYMEKSKHLQEQLNELKTEIEALKLKERETALDILHNENSDRGGSSKHNTIKKLTLQSWKSRVAFFEEL
**Q.** Does B3 bind [3]?
**A.** Result: binds

B4: Merlin C-terminal tail domain (Merlin-CTD, residues 507-595) (domain or fragment, human, UniProt P35240 507-595, looked up)
chain: FDFKDTDMKRLSMEIEKEKVEYMEKSKHLQEQLNELKTEIEALKLKERETALDILHNENSDRGGSSKHNTIKKLTLQSAKSRVAFFEEL
**Q.** How did the Kd [2] turn out when B4 was run?
**A.** The Kd was ~3000 nM and ~4000 nM.

**Q.** Which results are given for ILDFNISLAMAKERAHQKRSSKRAPQMDWSKKNELFSNL (domain or fragment, human, UniProt O14745 320-358, looked up) [EBP50 C-terminal tail (EBP50-CT, residues 320-358)]?
**A.** binding result (S518D-Merlin): binds; Kd [1]: ~80 nM

B5: elongated α-helix-rich region of AMOT (residues 404-728 of AMOT-p130) (domain or fragment)
chain: ADPFAMVSRAQQMVEILSDENRNLRQELDGCYEKVARLQKVETEIQRVSEAYENLVKSSSKREALEKAMRNKLEGEIRRMHDFNRDLRDRLETANKQLAEKEYEGSEDTRKTISQLFAKHKENQREKEKLEAELATARSTNEDQRRHIEIRDQALSNAQAKVVKLEEELKKKQVYVDKVEKMQQALVQLQAACEKREQLEHRLRTRLERELESLRIQQRQGNSQPTNASEYNAAALMELLREKEERILALEADMTKWEQKYLEENVMRHFALDAAATVAAQRDTTVISHSPNTSYDTALEARIQKEEEEILMANKRCLDMEGRIK
**Q.** B5 was tested. Which stoichiometry N [4] did it give?
**A.** The stoichiometry N was 1.

**Q.** Does PKFGTHHKALQEIRNSLLPFANETSSSRSPSE (domain or fragment, mouse, UniProt Q8BYR2 69-100, looked up) [Lats1 FERM-binding domain (Lats1-FBD, residues 69-100)] bind [3]?
**A.** Result: binds

**Q.** Does PKFGTHHKALQEIRNSLLPFANETSSSRSPSE (domain or fragment, mouse, UniProt Q8BYR2 69-100, looked up) [GST-tagged Lats1-FBD] bind (S518A-Merlin)?
**A.** Result: binds

**Q.** Does PKFGPYQKALREIRYSLLPFANESGTSAAAEV (domain or fragment, human, UniProt Q9NRM7 68-99, looked up) [Lats2 FERM-binding domain (Lats2-FBD, residues 68-99)] bind [3]?
**A.** Result: binds
